From patent US7820795B2, “Lactobacillus fermentum N-desoxyribosyl transferases and the use thereof for enzymatic synthesis of 2′, 3′—didesoxynucleosides and 2′,3′- didehydro-2′,3′- didesoxynucleosides” (Institut Pasteur, priority 2004, dated 2010)

Tests used:
[1] = biological target: T1, Lactobacillus fermentum N-deoxyribosyl transferase (NTD, LF), native/wild type, SEQ ID No. 2 (Limosilactobacillus fermentum, UniProt Q6YNI5); experiment: Enzymatic activity tests (dT+C, ddT+C and d4T+C reactions), native enzyme LF; assay type: biochemical; settings: deoxyribosyl donor + C (cytosine)
T1 construct: crude extract or purified
T1 sequence (Q6YNI5 1-168): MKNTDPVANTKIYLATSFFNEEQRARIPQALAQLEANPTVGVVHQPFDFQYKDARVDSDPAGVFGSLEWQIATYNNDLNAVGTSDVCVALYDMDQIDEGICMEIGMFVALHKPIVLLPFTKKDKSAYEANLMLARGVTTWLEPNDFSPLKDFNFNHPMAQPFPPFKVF
Method: (§1) 50 μl of enzymatic extract is added to 200 μl of 100 mM citrate buffer, pH 6.44, in the presence of 3 mM ddU or dU final and of 1 mM C final for the strain PAK9, the whole is incubated at 37° C. The progress of the reaction is monitored by TLC (silica; eluent: MeOH—CH2Cl2 (20/80)). […] The disappearance of the substrates and the formation of the products were also quantified by HPLC analysis. The different products are separated by analytical HPLC with a reversed-phase column (100-5C18) using a flow rate of 1 ml/min and a linear gradient of 5-25% CH3CN in a 10 mM triethyl ammonium acetate buffer at pH 7.5 for 20 minutes.
(§2) were used as primer in an amplification reaction under standard conditions using the ntd gene of L. fermentum cloned in pSU19 (pLF6) as DNA matrix. The amplification product was digested by the restriction enzymes Nde1 and BamH1 for 2 hours at 37° C., purified on agarose gel and inserted into the plasmid pET24a digested by the same enzymes then the ligation mixture is used to transform the strain β 2033. The plasmid DNA from the colonies was prepared and digested by the enzymes Nde1 and BamH1. […]
(§3) The cells are then centrifuged for 15′ at 4000 rpm at 4° C., washed in 50 ml of phosphate buffer then the pellet obtained after centrifugation is preserved overnight at −20° C. […] The fractions are then analyzed by SDS-PAGE gel and the enzymatic activity determined. […] The protein concentration is determined by measuring the OD at 280 nm. […]
(§4) The enzymatic activities of the native and mutant N-deoxyribosyl transferases of L. leichmannii (LL and LL G9S) and of L. fermentum (LF and LFA15T) in the exchange reactions dT+C ? dC+T, ddT+C ? ddC+T and d4T+C ? d4C+T were evaluated starting from crude extracts or purified proteins.
(§5) These different values were measured according to the protocol described in the literature [P A Kaminski (2002) “Functional cloning, heterologous expression and purification of two different N-deoxyribosyl transferases from Lactobacillus helveticus” J. Biol. Chem; vol. […]

[2] = biological target: T2, Lactobacillus fermentum N-deoxyribosyl transferase (NTD) variant LFA15T, mutation A15T, SEQ ID No. 4 (Limosilactobacillus fermentum, UniProt Q6YNI5, A15T); experiment: Enzymatic activity tests (dT+C, ddT+C and d4T+C reactions), mutated enzyme LFA15T; assay type: biochemical; settings: mutant LFA15T; deoxyribosyl donor + C (cytosine)
T2 construct: crude extract or purified
T2 sequence (Q6YNI5 1-168 A15T): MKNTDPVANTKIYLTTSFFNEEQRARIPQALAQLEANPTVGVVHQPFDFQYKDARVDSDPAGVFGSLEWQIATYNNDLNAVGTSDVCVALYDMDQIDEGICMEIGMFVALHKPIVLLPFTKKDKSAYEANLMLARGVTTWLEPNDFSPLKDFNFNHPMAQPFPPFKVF
Method: (§6) The sequencing of the plasmids present in the selected transformants of PAK 9 made it possible to identify a mutation in the sequence (ntd) having the effect of substituting a residue T for the residue A in position 15 in the corresponding protein sequence (SEQ ID No. 2) (mutation called A15T).
50 μl of enzymatic extract is added to 200 μl of 100 mM citrate buffer, pH 6.44, in the presence of 3 mM ddU or dU final and of 1 mM C final for the strain PAK9, the whole is incubated at 37° C. The progress of the reaction is monitored by TLC (silica; eluent: MeOH—CH2Cl2 (20/80)). […] The disappearance of the substrates and the formation of the products were also quantified by HPLC analysis. […]
as §3
The enzymatic activities of the native and mutant N-deoxyribosyl transferases of L. leichmannii (LL and LL G9S) and of L. fermentum (LF and LFA15T) in the exchange reactions dT+C ? dC+T, ddT+C ? ddC+T and d4T+C ? d4C+T were evaluated starting from crude extracts or purified proteins. […]

[3] = system: HIV (human immunodeficiency virus); settings: cited from earlier work
[4] = exchange reaction dT + C (transfer of deoxyribose), specific activity of N-deoxyribosyl transferases; assay type: biochemical; settings: for specific activity, dT + C: relative, 100% = specific activity of NTD of L. leichmannii (LL) in dT + C, crude extracts or purified proteins
Method: (§7) The cells are then centrifuged at 4000 rpm for 30 minutes at 4° C., the pellet is resuspended in 10 ml of phosphate buffer (Na2HP04+NaH2PO4) at 50 mM (pH=7.5). After centrifugation, the pellet is resuspended in 1 ml of the same buffer. The cells, preserved in ice, are then subjected to three cycles of 30 s of sonication and 30 s of rest. After centrifugation at 12000 rpm for 2×15 minutes at 4° C., the supernatants are recovered and stored at −20° C.
as §1
(§8) The cells are then centrifuged for 15′ at 4000 rpm at 4° C., washed in 50 ml of phosphate buffer then the pellet obtained after centrifugation is preserved overnight at −20° C. The bacterial pellet resuspended in 20 ml of phosphate buffer is then lysed by passage through a French press at 14000 psi. The lysate is centrifuged for 90′ at 50,000 rpm. The supernatant containing the soluble proteins is then precipitated with ammonium sulphate (40% saturation). […] The fractions are then analyzed by SDS-PAGE gel and the enzymatic activity determined. […] The protein concentration is determined by measuring the OD at 280 nm. […]
as §4

[5] = exchange reaction ddT + C (transfer of dideoxyribose), specific activity of N-deoxyribosyl transferases; assay type: biochemical; settings: for specific activity, ddT + C: relative, 100% = specific activity of NTD of L. leichmannii (LL) in dT + C, crude extracts or purified proteins
Method: as §7, §1, §8, §4

[6] = exchange reaction d4T + C (transfer of didehydroribose), specific activity of N-deoxyribosyl transferases; assay type: biochemical; settings: for specific activity, d4T + C: relative, 100% = specific activity of NTD of L. leichmannii (LL) in dT + C, crude extracts or purified proteins
Method: as §7, §1, §8, §4

[7] = substrate: Cc1cn([C@H]2C=C[C@@H](CO)O2)c(=O)[nH]c1=O; experiment: Enzymatic activity tests (dT+C, ddT+C and d4T+C reactions), native enzyme LF; assay type: biochemical, Lactobacillus fermentum; settings: other: native LF; deoxyribosyl donor + C (cytosine); 37.0 °C
Method: as §1
(§9) were used as primer in an amplification reaction under standard conditions using the ntd gene of L. fermentum cloned in pSU19 (pLF6) as DNA matrix. The amplification product was digested by the restriction enzymes Nde1 and BamH1 for 2 hours at 37° C., purified on agarose gel and inserted into the plasmid pET24a digested by the same enzymes then the ligation mixture is used to transform the strain β 2033. The plasmid DNA from the colonies was prepared and digested by the enzymes Nde1 and BamH1. Those, the sequence of which was correct, were used to transform the strain BL21 (DE3)/plysS (Novagen). The plasmid DNA of the mutant pSU19NLFA15T selected previously was prepared then digested by the enzymes Nde1 and BamH1. The corresponding fragment Nde1-BamH1 was then inserted into the plasmid pET24a digested by the same enzymes in order to produce the expression plasmid pETLFA15T useful to the expression of the mutated protein. A strain of E. coli transformed using the plasmid pETLFA15T was deposited at the CNCM (INSTITUT PASTEUR, 25 rue du Docteur Roux, F-75724 PARIS Cedex 15) on 22 Mar. 2004 under accession number I-3192. The overproduction of the two N-deoxyribosyl transferases, native and mutated, was obtained from cultures of this strain in 500 ml of LB medium supplemented with Km and Cm. These cultures were induced at an OD600=0.6 by the addition of IPTG (0.4 mM), the incubation being continued for 2 hours 30 minutes at 37° C.
(§10) The cells are then centrifuged for 15′ at 4000 rpm at 4° C., washed in 50 ml of phosphate buffer then the pellet obtained after centrifugation is preserved overnight at −20° C. The bacterial pellet resuspended in 20 ml of phosphate buffer is then lysed by passage through a French press at 14000 psi. The lysate is centrifuged for 90′ at 50,000 rpm. The supernatant containing the soluble proteins is then precipitated with ammonium sulphate (40% saturation). The precipitate obtained after centrifugation at 13900 rpm (20,000 g) for 30′ at 4° C. is resuspended in 1 ml of 100 mM phosphate buffer, pH 7.5, 1.5 M NaCl, then deposited on a Sephacryl S200 gel filtration column (Amersham-Pharmacia). The fractions are then analyzed by SDS-PAGE gel and the enzymatic activity determined. […] The protein concentration is determined by measuring the OD at 280 nm.
(§11) The measurement of the enzymatic activities is carried out as described in paragraph 4.2.
as §4
(§12) These different values were measured according to the protocol described in the literature [P A Kaminski (2002) “Functional cloning, heterologous expression and purification of two different N-deoxyribosyl transferases from Lactobacillus helveticus” J. Biol. Chem; vol. 277; 14400-14407]. […] The activities are increased respectively by 60% and 54%.

[8] = substrate: Cc1cn([C@H]2CC[C@@H](CO)O2)c(=O)[nH]c1=O; experiment: as above; assay type: biochemical, Lactobacillus fermentum; settings: other: native LF; deoxyribosyl donor + C (cytosine); 37.0 °C
Method: as §1, §9, §10, §11, §4, §12

[9] = substrate: Cc1cn([C@H]2C[C@H](O)[C@@H](CO)O2)c(=O)[nH]c1=O; experiment: as above; assay type: biochemical, Lactobacillus fermentum; settings: other: native LF; deoxyribosyl donor + C (cytosine); 37.0 °C
Method: as §1, §9, §10, §11, §4, §12

[10] = enzymatic activity test (kinetic constants), ddT+C reaction; assay type: biochemical
Method: as §12

[11] = enzymatic activity test (kinetic constants), d4T+C reaction; assay type: biochemical
Method: as §12

[12] = substrate: Cc1cn([C@H]2CC[C@@H](CO)O2)c(=O)[nH]c1=O; experiment: Enzymatic activity tests (dT+C, ddT+C and d4T+C reactions), mutated enzyme LFA15T; assay type: biochemical, Lactobacillus fermentum; settings: other: mutant LFA15T; deoxyribosyl donor + C (cytosine); 37.0 °C
Method: as §6, §1
as §2, with “BamH1. Those, the sequence of which was correct, were used to transform the strain BL21 (DE3)/plysS (Novagen). The plasmid DNA of the mutant pSU19NLFA15T selected previously was prepared then digested by the enzymes Nde1 and BamH1. The corresponding fragment Nde1-BamH1 was then inserted into the plasmid pET24a digested by the same enzymes in order to produce the expression plasmid pETLFA15T useful to the expression of the mutated protein.” for “BamH1.”
as §3, §4, §5

[13] = substrate: Cc1cn([C@H]2C[C@H](O)[C@@H](CO)O2)c(=O)[nH]c1=O; experiment: as above; assay type: biochemical, Lactobacillus fermentum; settings: other: mutant LFA15T; deoxyribosyl donor + C (cytosine); 37.0 °C
Method: as §6, §1
as §2, with “BamH1. Those, the sequence of which was correct, were used to transform the strain BL21 (DE3)/plysS (Novagen). The plasmid DNA of the mutant pSU19NLFA15T selected previously was prepared then digested by the enzymes Nde1 and BamH1. The corresponding fragment Nde1-BamH1 was then inserted into the plasmid pET24a digested by the same enzymes in order to produce the expression plasmid pETLFA15T useful to the expression of the mutated protein.” for “BamH1.”
as §3, §4, §5

[14] = mutant LFA15T versus native enzyme LF
[15] = catalytic effectiveness Kcat/Km
[16] = mutated enzyme versus native enzyme

Cc1cn([C@H]2C[C@H](O)[C@@H](CO)O2)c(=O)[nH]c1=O [dT]
Kcat [1]: 0.665 µmol/s/µg
Kcat [2]: 0.242 µmol/s/µg

OC[C@@H]1CC[C@H](n2cnc3c(O)ncnc32)O1 [ddl, 2′,3′-dideoxyinosine]
inhibition of replication of HIV [3]: effectively inhibit the replication of HIV

B1: Lactobacillus fermentum N-deoxyribosyl transferase (NTD, LF), native/wild type, SEQ ID No. 2 (Limosilactobacillus fermentum) (protein)
chain: MKNTDPVANTKIYLATSFFNEEQRARIPQALAQLEANPTVGVVHQPFDFQYKDARVDSDPAGVFGSLEWQIATYNNDLNAVGTSDVCVALYDMDQIDEGICMEIGMFVALHKPIVLLPFTKKDKSAYEANLMLARGVTTWLEPNDFSPLKDFNFNHPMAQPFPPFKVF
notes: crude extract or purified
specific activity, dT + C [4]: 76.5%
specific activity, ddT + C [5]: 0.9%
specific activity, d4T + C [6]: 2.1%
Km [7]: 1250 µM
Vmax [7]: 24 µmol/s
Km [8]: 80 µM
Vmax [8]: 5.7 µmol/s
Km [9]: 124 µM
Vmax [9]: 6.65 µmol/s

B2: Lactobacillus fermentum N-deoxyribosyl transferase (NTD) variant LFA15T, mutation A15T, SEQ ID No. 4 (Limosilactobacillus fermentum; A15T) (protein)
chain: MKNTDPVANTKIYLTTSFFNEEQRARIPQALAQLEANPTVGVVHQPFDFQYKDARVDSDPAGVFGSLEWQIATYNNDLNAVGTSDVCVALYDMDQIDEGICMEIGMFVALHKPIVLLPFTKKDKSAYEANLMLARGVTTWLEPNDFSPLKDFNFNHPMAQPFPPFKVF
notes: crude extract or purified
factor by which activity is reduced, transfer of deoxyribose [4, 14]: 7
specific activity, dT + C [4]: 10.7%
factor by which activity is increased, transfer of dideoxyribose [5, 14]: 3
specific activity, ddT + C [5]: 2.5%
factor by which activity is increased, transfer of didehydroribose [6, 14]: 35
specific activity, d4T + C [6]: 73.5%
times more effective than native enzyme LF, ddT+X exchange [10, 15]: 60 times
increase of catalytic activity on ddT [10, 16]: 54%
times more effective than native enzyme LF, d4T+X exchange [11, 15]: 7.5 times
increase of catalytic activity on d4T [11, 16]: 60%
Km [12]: 53 µM
Vmax [12]: 7.8 µmol/s
Km [13]: 371 µM
Vmax [13]: 9.7 µmol/s
